The record followed here is article PMC6811359.

The target in assay [1] is PAL, light-oxygen-voltage (LOV) receptor from Nakamurella multipartita (Nakamurella multipartita). The assay is described as follows: SEC. (In general: SEC sorts molecules by how far they enter the pores of the column.)
The target is the same in assay [2]. The assay is described as follows: SEC-MALS.
Assay [3] concerns the target isolated LOV domain of PAL (Nakamurella multipartita). The assay is described as follows: SEC.
Assay [4] has the same target. The assay is described as follows: SEC-MALS.

In general, stoichiometry N refers to the number of molecules, sites or subunits per partner or assembly. Take “PAL, light-oxygen-voltage (LOV) receptor from Nakamurella multipartita (natural protein)”: the stoichiometry N in assay [1] and in assay [2] was 2 in each case.
Take “isolated LOV domain of PAL (domain or fragment)”: the stoichiometry N in assay [3] and in assay [4] was 2 in each case.
